Where no end group is shown, it is not given here. [ ]: non-standard residue; d: D form. Aib = CC(C)(N)C(=O)O
B1: Compound A14 (peptide)
peptide: YSHGTFTSDYSKYLD[Aib]KRAQEFV[Aib]WLEDESSGAPPPS-OH
modifications: N-terminus assumed
SMILES: CC(C)C[C@H](NC(=O)[C@H](Cc1ccc(O)cc1)NC(=O)[C@H](CCCCN)NC(=O)[C@H](CO)NC(=O)[C@H](Cc1ccc(O)cc1)NC(=O)[C@H](CC(=O)O)NC(=O)[C@H](CO)NC(=O)[C@@H](NC(=O)[C@H](Cc1ccccc1)NC(=O)[C@@H](NC(=O)CNC(=O)[C@H](Cc1c[nH]cn1)NC(=O)[C@H](CO)NC(=O)[C@@H](N)Cc1ccc(O)cc1)[C@@H](C)O)[C@@H](C)O)C(=O)N[C@@H](CC(=O)O)C(=O)NC(C)(C)C(=O)N[C@@H](CCCCN)C(=O)N[C@@H](CCCNC(=N)N)C(=O)N[C@@H](C)C(=O)N[C@@H](CCC(N)=O)C(=O)N[C@@H](CCC(=O)O)C(=O)N[C@@H](Cc1ccccc1)C(=O)N[C@H](C(=O)NC(C)(C)C(=O)N[C@@H](Cc1c[nH]c2ccccc12)C(=O)N[C@@H](CC(C)C)C(=O)N[C@@H](CCC(=O)O)C(=O)N[C@@H](CC(=O)O)C(=O)N[C@@H](CCC(=O)O)C(=O)N[C@@H](CO)C(=O)N[C@@H](CO)C(=O)NCC(=O)N[C@@H](C)C(=O)N1CCC[C@H]1C(=O)N1CCC[C@H]1C(=O)N1CCC[C@H]1C(=O)N[C@@H](CO)C(=O)O)C(C)C
B2: Compound A15 (peptide)
peptide: YSHGTFTSDYSKYLD[Aib]SRAQEFV[Aib]WLEDEPSSGAPPPS-OH
modifications: N-terminus assumed
SMILES: CC(C)C[C@H](NC(=O)[C@H](Cc1ccc(O)cc1)NC(=O)[C@H](CCCCN)NC(=O)[C@H](CO)NC(=O)[C@H](Cc1ccc(O)cc1)NC(=O)[C@H](CC(=O)O)NC(=O)[C@H](CO)NC(=O)[C@@H](NC(=O)[C@H](Cc1ccccc1)NC(=O)[C@@H](NC(=O)CNC(=O)[C@H](Cc1c[nH]cn1)NC(=O)[C@H](CO)NC(=O)[C@@H](N)Cc1ccc(O)cc1)[C@@H](C)O)[C@@H](C)O)C(=O)N[C@@H](CC(=O)O)C(=O)NC(C)(C)C(=O)N[C@@H](CO)C(=O)N[C@@H](CCCNC(=N)N)C(=O)N[C@@H](C)C(=O)N[C@@H](CCC(N)=O)C(=O)N[C@@H](CCC(=O)O)C(=O)N[C@@H](Cc1ccccc1)C(=O)N[C@H](C(=O)NC(C)(C)C(=O)N[C@@H](Cc1c[nH]c2ccccc12)C(=O)N[C@@H](CC(C)C)C(=O)N[C@@H](CCC(=O)O)C(=O)N[C@@H](CC(=O)O)C(=O)N[C@@H](CCC(=O)O)C(=O)N1CCC[C@H]1C(=O)N[C@@H](CO)C(=O)N[C@@H](CO)C(=O)NCC(=O)N[C@@H](C)C(=O)N1CCC[C@H]1C(=O)N1CCC[C@H]1C(=O)N1CCC[C@H]1C(=O)N[C@@H](CO)C(=O)O)C(C)C
B3: Compound A13 (peptide)
peptide: YSHGTFTSDYSKYLD[Aib]KRAQEFV[Aib]WLEDESGAPPPS-OH
modifications: N-terminus assumed
SMILES: CC(C)C[C@H](NC(=O)[C@H](Cc1ccc(O)cc1)NC(=O)[C@H](CCCCN)NC(=O)[C@H](CO)NC(=O)[C@H](Cc1ccc(O)cc1)NC(=O)[C@H](CC(=O)O)NC(=O)[C@H](CO)NC(=O)[C@@H](NC(=O)[C@H](Cc1ccccc1)NC(=O)[C@@H](NC(=O)CNC(=O)[C@H](Cc1c[nH]cn1)NC(=O)[C@H](CO)NC(=O)[C@@H](N)Cc1ccc(O)cc1)[C@@H](C)O)[C@@H](C)O)C(=O)N[C@@H](CC(=O)O)C(=O)NC(C)(C)C(=O)N[C@@H](CCCCN)C(=O)N[C@@H](CCCNC(=N)N)C(=O)N[C@@H](C)C(=O)N[C@@H](CCC(N)=O)C(=O)N[C@@H](CCC(=O)O)C(=O)N[C@@H](Cc1ccccc1)C(=O)N[C@H](C(=O)NC(C)(C)C(=O)N[C@@H](Cc1c[nH]c2ccccc12)C(=O)N[C@@H](CC(C)C)C(=O)N[C@@H](CCC(=O)O)C(=O)N[C@@H](CC(=O)O)C(=O)N[C@@H](CCC(=O)O)C(=O)N[C@@H](CO)C(=O)NCC(=O)N[C@@H](C)C(=O)N1CCC[C@H]1C(=O)N1CCC[C@H]1C(=O)N1CCC[C@H]1C(=O)N[C@@H](CO)C(=O)O)C(C)C
B4: Compound A19 (peptide)
peptide: YSHGTFTSDYSKWLD[Aib]SRAQEFV[Aib]WLEDEPSSGAPPPS-OH
modifications: N-terminus assumed
SMILES: CC(C)C[C@H](NC(=O)[C@H](Cc1c[nH]c2ccccc12)NC(=O)[C@H](CCCCN)NC(=O)[C@H](CO)NC(=O)[C@H](Cc1ccc(O)cc1)NC(=O)[C@H](CC(=O)O)NC(=O)[C@H](CO)NC(=O)[C@@H](NC(=O)[C@H](Cc1ccccc1)NC(=O)[C@@H](NC(=O)CNC(=O)[C@H](Cc1c[nH]cn1)NC(=O)[C@H](CO)NC(=O)[C@@H](N)Cc1ccc(O)cc1)[C@@H](C)O)[C@@H](C)O)C(=O)N[C@@H](CC(=O)O)C(=O)NC(C)(C)C(=O)N[C@@H](CO)C(=O)N[C@@H](CCCNC(=N)N)C(=O)N[C@@H](C)C(=O)N[C@@H](CCC(N)=O)C(=O)N[C@@H](CCC(=O)O)C(=O)N[C@@H](Cc1ccccc1)C(=O)N[C@H](C(=O)NC(C)(C)C(=O)N[C@@H](Cc1c[nH]c2ccccc12)C(=O)N[C@@H](CC(C)C)C(=O)N[C@@H](CCC(=O)O)C(=O)N[C@@H](CC(=O)O)C(=O)N[C@@H](CCC(=O)O)C(=O)N1CCC[C@H]1C(=O)N[C@@H](CO)C(=O)N[C@@H](CO)C(=O)NCC(=O)N[C@@H](C)C(=O)N1CCC[C@H]1C(=O)N1CCC[C@H]1C(=O)N1CCC[C@H]1C(=O)N[C@@H](CO)C(=O)O)C(C)C
B5: Compound A18 (peptide)
peptide: YSHGTFTSDYSKWLD[Aib]ARAQEFV[Aib]WLEDEPSSGAPPPS-OH
modifications: N-terminus assumed
SMILES: CC(C)C[C@H](NC(=O)[C@H](Cc1c[nH]c2ccccc12)NC(=O)[C@H](CCCCN)NC(=O)[C@H](CO)NC(=O)[C@H](Cc1ccc(O)cc1)NC(=O)[C@H](CC(=O)O)NC(=O)[C@H](CO)NC(=O)[C@@H](NC(=O)[C@H](Cc1ccccc1)NC(=O)[C@@H](NC(=O)CNC(=O)[C@H](Cc1c[nH]cn1)NC(=O)[C@H](CO)NC(=O)[C@@H](N)Cc1ccc(O)cc1)[C@@H](C)O)[C@@H](C)O)C(=O)N[C@@H](CC(=O)O)C(=O)NC(C)(C)C(=O)N[C@@H](C)C(=O)N[C@@H](CCCNC(=N)N)C(=O)N[C@@H](C)C(=O)N[C@@H](CCC(N)=O)C(=O)N[C@@H](CCC(=O)O)C(=O)N[C@@H](Cc1ccccc1)C(=O)N[C@H](C(=O)NC(C)(C)C(=O)N[C@@H](Cc1c[nH]c2ccccc12)C(=O)N[C@@H](CC(C)C)C(=O)N[C@@H](CCC(=O)O)C(=O)N[C@@H](CC(=O)O)C(=O)N[C@@H](CCC(=O)O)C(=O)N1CCC[C@H]1C(=O)N[C@@H](CO)C(=O)N[C@@H](CO)C(=O)NCC(=O)N[C@@H](C)C(=O)N1CCC[C@H]1C(=O)N1CCC[C@H]1C(=O)N1CCC[C@H]1C(=O)N[C@@H](CO)C(=O)O)C(C)C
B6: Compound A16 (peptide)
peptide: YSHGTFTSDYSKYLD[Aib]TRAQEFV[Aib]WLEDEPSSGAPPPS-OH
modifications: N-terminus assumed
SMILES: CC(C)C[C@H](NC(=O)[C@H](Cc1ccc(O)cc1)NC(=O)[C@H](CCCCN)NC(=O)[C@H](CO)NC(=O)[C@H](Cc1ccc(O)cc1)NC(=O)[C@H](CC(=O)O)NC(=O)[C@H](CO)NC(=O)[C@@H](NC(=O)[C@H](Cc1ccccc1)NC(=O)[C@@H](NC(=O)CNC(=O)[C@H](Cc1c[nH]cn1)NC(=O)[C@H](CO)NC(=O)[C@@H](N)Cc1ccc(O)cc1)[C@@H](C)O)[C@@H](C)O)C(=O)N[C@@H](CC(=O)O)C(=O)NC(C)(C)C(=O)N[C@H](C(=O)N[C@@H](CCCNC(=N)N)C(=O)N[C@@H](C)C(=O)N[C@@H](CCC(N)=O)C(=O)N[C@@H](CCC(=O)O)C(=O)N[C@@H](Cc1ccccc1)C(=O)N[C@H](C(=O)NC(C)(C)C(=O)N[C@@H](Cc1c[nH]c2ccccc12)C(=O)N[C@@H](CC(C)C)C(=O)N[C@@H](CCC(=O)O)C(=O)N[C@@H](CC(=O)O)C(=O)N[C@@H](CCC(=O)O)C(=O)N1CCC[C@H]1C(=O)N[C@@H](CO)C(=O)N[C@@H](CO)C(=O)NCC(=O)N[C@@H](C)C(=O)N1CCC[C@H]1C(=O)N1CCC[C@H]1C(=O)N1CCC[C@H]1C(=O)N[C@@H](CO)C(=O)O)C(C)C)[C@@H](C)O
B7: Compound A17 (peptide)
peptide: YSHGTFTSDYSKYLD[Aib]ERAQEFV[Aib]WLEDEPSSGAPPPS-OH
modifications: N-terminus assumed
SMILES: CC(C)C[C@H](NC(=O)[C@H](Cc1ccc(O)cc1)NC(=O)[C@H](CCCCN)NC(=O)[C@H](CO)NC(=O)[C@H](Cc1ccc(O)cc1)NC(=O)[C@H](CC(=O)O)NC(=O)[C@H](CO)NC(=O)[C@@H](NC(=O)[C@H](Cc1ccccc1)NC(=O)[C@@H](NC(=O)CNC(=O)[C@H](Cc1c[nH]cn1)NC(=O)[C@H](CO)NC(=O)[C@@H](N)Cc1ccc(O)cc1)[C@@H](C)O)[C@@H](C)O)C(=O)N[C@@H](CC(=O)O)C(=O)NC(C)(C)C(=O)N[C@@H](CCC(=O)O)C(=O)N[C@@H](CCCNC(=N)N)C(=O)N[C@@H](C)C(=O)N[C@@H](CCC(N)=O)C(=O)N[C@@H](CCC(=O)O)C(=O)N[C@@H](Cc1ccccc1)C(=O)N[C@H](C(=O)NC(C)(C)C(=O)N[C@@H](Cc1c[nH]c2ccccc12)C(=O)N[C@@H](CC(C)C)C(=O)N[C@@H](CCC(=O)O)C(=O)N[C@@H](CC(=O)O)C(=O)N[C@@H](CCC(=O)O)C(=O)N1CCC[C@H]1C(=O)N[C@@H](CO)C(=O)N[C@@H](CO)C(=O)NCC(=O)N[C@@H](C)C(=O)N1CCC[C@H]1C(=O)N1CCC[C@H]1C(=O)N1CCC[C@H]1C(=O)N[C@@H](CO)C(=O)O)C(C)C

These binders were tested against human GLP-1 receptor (GLP-1R) (human, UniProt P43220 24-463) (assay: cell-based or functional assay).
Sequence of human GLP-1 receptor (GLP-1R) (P43220 24-463): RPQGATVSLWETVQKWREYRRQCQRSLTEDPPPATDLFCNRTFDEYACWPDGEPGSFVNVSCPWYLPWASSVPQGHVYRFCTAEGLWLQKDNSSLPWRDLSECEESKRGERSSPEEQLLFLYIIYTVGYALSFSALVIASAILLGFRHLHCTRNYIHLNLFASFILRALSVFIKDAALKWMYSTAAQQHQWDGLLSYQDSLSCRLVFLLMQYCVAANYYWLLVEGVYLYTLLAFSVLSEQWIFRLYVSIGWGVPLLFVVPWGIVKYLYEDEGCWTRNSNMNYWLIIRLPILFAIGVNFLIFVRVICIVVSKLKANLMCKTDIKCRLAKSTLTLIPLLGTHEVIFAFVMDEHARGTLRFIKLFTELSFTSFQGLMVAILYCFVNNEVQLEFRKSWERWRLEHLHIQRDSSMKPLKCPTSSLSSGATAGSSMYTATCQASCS

| Binder | hGLP1 pEC50 (cAMP) |
| --- | --- |
| B1 | < 9 pEC50 |
| B2 | < 9 pEC50 |
| B3 | < 9 pEC50 |
| B4 | < 9 pEC50 |
| B5 | < 9 pEC50 |
| B6 | < 9 pEC50 |
| B7 | < 9 pEC50 |

These binders were tested against human glucagon receptor (GCGR) (human, UniProt P47871 26-477) (assay: cell-based or functional assay).

| Binder | hGCGR pEC50 (cAMP) |
| --- | --- |
| B1 | 12 pEC50 |
| B2 | 11.4 pEC50 |
| B3 | 12.3 pEC50 |
| B4 | 11 pEC50 |
| B5 | 12.4 pEC50 |
| B6 | 11.9 pEC50 |
| B7 | 11.1 pEC50 |

— patent publication US20180009871A1 (INTARCIA THERAPEUTICS, published 2018)
